Source: patent US10562947B2, “Compositions and methods for preventing or treating diseases, conditions or processes characterized by aberrant fibroblast proliferation and extracellular matrix deposition” (MOERAE MATRIX, INC., priority 2011, dated 2020)

Key:
Assay in all cases: Kinase Profiling Assay
Type in all cases: biochemical
Conditions in all cases: 100 μM peptide
CDK6/cyclinD3(h) = CDK6/cyclinD3(h) (Homo sapiens, UniProt Q00534)
Procedure, shortened: (§1)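 Off-target screen of MK2 peptide inhibitors, 266 human kinases, n = 2 per activity measurement.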

CK1δ(h) = CK1δ(h) (Homo sapiens, UniProt P48730)
Chain of CK1δ(h) (P48730 whole entry): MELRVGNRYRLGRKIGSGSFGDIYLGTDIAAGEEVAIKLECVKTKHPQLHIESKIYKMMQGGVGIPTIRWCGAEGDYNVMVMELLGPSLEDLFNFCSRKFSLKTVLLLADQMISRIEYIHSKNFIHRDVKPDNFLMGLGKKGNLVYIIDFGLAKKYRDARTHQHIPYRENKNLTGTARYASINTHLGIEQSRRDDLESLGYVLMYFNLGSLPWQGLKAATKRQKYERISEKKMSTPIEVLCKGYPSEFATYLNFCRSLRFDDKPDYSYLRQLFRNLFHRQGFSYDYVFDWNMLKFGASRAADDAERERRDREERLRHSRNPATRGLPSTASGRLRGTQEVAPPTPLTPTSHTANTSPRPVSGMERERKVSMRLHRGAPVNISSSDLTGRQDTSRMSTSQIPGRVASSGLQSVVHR
Procedure, shortened: as §1

WNK3(h) = WNK3(h) (Homo sapiens, UniProt Q9BYP7)
Chain of WNK3(h) (Q9BYP7 whole entry): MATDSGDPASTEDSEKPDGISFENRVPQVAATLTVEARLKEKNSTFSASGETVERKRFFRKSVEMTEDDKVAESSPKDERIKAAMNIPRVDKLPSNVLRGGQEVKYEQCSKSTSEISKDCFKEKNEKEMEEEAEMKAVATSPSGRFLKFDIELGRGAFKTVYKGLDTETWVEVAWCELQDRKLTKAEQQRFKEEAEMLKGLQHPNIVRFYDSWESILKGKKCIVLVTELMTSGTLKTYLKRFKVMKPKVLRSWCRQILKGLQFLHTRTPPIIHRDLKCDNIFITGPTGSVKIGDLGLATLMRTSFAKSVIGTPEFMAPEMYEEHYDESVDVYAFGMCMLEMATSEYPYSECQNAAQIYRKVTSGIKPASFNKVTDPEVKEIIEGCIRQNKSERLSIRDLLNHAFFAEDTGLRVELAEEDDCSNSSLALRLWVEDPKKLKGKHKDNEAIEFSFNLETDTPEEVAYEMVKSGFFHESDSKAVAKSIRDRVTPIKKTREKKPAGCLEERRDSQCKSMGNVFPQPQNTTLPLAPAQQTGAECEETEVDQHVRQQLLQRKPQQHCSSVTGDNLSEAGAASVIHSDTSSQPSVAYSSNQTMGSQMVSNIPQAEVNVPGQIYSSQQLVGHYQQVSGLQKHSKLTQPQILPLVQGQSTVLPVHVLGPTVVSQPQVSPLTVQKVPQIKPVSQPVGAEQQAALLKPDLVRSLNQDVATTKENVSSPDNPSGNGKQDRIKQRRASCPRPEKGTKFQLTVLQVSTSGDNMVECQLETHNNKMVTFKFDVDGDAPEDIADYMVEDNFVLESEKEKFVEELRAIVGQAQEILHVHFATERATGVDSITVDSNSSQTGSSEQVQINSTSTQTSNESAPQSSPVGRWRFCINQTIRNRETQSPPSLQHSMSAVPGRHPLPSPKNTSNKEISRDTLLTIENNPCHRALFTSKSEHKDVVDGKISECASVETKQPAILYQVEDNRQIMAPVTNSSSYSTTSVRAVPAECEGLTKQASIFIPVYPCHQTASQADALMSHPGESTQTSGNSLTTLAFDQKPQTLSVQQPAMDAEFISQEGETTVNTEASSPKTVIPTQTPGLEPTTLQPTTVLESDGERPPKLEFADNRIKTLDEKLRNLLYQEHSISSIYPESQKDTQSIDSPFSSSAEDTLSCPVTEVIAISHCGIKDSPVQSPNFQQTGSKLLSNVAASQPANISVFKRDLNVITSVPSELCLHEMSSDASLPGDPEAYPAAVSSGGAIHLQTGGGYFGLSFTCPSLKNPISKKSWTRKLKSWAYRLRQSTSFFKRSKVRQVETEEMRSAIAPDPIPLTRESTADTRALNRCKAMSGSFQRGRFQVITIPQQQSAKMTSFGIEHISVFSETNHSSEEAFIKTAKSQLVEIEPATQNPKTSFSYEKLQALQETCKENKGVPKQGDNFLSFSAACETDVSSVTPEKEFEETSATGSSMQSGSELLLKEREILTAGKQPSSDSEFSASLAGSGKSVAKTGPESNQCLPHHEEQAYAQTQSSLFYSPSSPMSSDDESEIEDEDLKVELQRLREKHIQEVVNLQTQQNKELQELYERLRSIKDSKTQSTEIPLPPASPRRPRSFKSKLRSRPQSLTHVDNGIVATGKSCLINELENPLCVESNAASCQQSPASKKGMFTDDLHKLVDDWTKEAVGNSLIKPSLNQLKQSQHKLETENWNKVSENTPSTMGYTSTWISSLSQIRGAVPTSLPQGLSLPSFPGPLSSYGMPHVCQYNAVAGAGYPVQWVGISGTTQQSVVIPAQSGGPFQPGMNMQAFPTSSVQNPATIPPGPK
Procedure, shortened: as §1

DAPK1(h) = DAPK1(h) (Homo sapiens, UniProt P53355)
Procedure, shortened: as §1

EphB1(h) = molecular target: T1, EphB1(h) (Homo sapiens, UniProt P54762)
T1 sequence (P54762 18-984): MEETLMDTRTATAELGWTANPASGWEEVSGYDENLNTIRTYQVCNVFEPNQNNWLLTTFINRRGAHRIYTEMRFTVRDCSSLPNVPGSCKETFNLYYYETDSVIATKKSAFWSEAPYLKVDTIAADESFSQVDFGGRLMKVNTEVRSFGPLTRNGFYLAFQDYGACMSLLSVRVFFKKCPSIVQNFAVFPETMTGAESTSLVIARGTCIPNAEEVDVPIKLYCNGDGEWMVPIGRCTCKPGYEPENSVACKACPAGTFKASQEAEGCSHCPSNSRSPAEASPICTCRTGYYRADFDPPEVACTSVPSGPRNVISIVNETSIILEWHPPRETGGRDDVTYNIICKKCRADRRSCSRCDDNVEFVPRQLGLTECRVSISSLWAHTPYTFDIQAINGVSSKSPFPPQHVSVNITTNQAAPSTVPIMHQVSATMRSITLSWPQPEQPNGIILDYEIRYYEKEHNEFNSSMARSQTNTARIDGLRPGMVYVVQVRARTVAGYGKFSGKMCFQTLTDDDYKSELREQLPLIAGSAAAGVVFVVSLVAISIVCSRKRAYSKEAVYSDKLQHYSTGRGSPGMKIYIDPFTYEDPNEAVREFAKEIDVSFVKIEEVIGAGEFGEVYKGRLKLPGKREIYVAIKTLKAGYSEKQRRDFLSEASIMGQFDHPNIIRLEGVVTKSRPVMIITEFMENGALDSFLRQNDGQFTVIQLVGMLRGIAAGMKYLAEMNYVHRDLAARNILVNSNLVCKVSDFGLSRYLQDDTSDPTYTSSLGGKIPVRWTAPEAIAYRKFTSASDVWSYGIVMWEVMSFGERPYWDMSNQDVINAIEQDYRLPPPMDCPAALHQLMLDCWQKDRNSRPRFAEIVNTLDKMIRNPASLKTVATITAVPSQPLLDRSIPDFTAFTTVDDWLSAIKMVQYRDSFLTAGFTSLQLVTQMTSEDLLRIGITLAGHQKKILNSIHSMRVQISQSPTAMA
Procedure, shortened: as §1

Pyk2(h) = molecular target: T2, Pyk2(h) (Homo sapiens, UniProt Q14289)
T2 construct: purchased Millipore (IC50 Profiler Express service)
T2 sequence (Q14289 whole entry): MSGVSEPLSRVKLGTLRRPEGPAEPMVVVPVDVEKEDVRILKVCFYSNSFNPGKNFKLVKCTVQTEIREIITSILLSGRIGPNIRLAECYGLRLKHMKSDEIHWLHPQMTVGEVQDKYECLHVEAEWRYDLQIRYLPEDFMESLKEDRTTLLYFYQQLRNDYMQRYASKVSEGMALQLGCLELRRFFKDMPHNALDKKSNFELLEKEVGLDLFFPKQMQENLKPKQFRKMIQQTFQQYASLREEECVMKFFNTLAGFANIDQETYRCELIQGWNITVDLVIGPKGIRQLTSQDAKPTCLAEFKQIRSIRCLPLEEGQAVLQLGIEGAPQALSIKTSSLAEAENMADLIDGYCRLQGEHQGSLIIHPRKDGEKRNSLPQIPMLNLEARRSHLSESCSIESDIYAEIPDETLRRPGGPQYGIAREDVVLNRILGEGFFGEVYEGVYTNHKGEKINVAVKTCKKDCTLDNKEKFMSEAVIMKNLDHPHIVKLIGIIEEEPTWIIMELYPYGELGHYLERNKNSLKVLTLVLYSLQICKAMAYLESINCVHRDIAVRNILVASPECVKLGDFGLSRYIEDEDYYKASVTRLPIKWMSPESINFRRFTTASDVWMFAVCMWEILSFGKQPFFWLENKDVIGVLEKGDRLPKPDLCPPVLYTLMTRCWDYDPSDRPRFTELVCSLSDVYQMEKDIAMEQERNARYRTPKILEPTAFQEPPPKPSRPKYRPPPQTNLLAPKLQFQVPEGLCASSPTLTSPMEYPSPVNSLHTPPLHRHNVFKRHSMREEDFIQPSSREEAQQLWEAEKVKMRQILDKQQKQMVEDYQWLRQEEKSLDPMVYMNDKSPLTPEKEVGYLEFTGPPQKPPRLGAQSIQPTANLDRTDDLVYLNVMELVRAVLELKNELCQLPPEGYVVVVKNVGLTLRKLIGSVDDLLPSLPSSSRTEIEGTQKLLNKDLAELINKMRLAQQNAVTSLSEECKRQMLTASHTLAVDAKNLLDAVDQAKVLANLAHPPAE
Procedure, shortened: as §1

TBK1(h) = molecular target: T3, TBK1(h) (Homo sapiens, UniProt Q9UHD2)
T3 sequence (Q9UHD2 1-729): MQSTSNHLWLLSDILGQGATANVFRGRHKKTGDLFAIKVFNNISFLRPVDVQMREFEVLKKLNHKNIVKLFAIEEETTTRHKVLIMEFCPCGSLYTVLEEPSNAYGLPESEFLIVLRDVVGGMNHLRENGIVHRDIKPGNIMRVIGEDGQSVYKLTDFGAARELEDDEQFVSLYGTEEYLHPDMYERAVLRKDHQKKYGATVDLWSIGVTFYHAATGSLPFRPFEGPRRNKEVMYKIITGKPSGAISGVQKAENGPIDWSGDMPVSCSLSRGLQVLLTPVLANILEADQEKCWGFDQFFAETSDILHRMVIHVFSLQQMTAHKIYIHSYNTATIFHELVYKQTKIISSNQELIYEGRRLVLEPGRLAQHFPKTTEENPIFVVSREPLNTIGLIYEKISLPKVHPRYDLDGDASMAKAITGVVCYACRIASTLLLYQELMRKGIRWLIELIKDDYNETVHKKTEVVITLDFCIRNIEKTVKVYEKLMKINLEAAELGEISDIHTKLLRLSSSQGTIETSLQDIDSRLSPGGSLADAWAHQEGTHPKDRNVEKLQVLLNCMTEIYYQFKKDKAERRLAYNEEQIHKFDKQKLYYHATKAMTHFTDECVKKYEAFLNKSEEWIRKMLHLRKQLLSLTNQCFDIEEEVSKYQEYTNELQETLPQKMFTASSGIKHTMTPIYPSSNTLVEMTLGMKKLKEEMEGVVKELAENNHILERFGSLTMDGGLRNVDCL
Procedure, shortened: as §1

BrSK2(h) = molecular target: T4, BrSK2(h) (Homo sapiens, UniProt Q8IWQ3)
T4 sequence (Q8IWQ3 1-736): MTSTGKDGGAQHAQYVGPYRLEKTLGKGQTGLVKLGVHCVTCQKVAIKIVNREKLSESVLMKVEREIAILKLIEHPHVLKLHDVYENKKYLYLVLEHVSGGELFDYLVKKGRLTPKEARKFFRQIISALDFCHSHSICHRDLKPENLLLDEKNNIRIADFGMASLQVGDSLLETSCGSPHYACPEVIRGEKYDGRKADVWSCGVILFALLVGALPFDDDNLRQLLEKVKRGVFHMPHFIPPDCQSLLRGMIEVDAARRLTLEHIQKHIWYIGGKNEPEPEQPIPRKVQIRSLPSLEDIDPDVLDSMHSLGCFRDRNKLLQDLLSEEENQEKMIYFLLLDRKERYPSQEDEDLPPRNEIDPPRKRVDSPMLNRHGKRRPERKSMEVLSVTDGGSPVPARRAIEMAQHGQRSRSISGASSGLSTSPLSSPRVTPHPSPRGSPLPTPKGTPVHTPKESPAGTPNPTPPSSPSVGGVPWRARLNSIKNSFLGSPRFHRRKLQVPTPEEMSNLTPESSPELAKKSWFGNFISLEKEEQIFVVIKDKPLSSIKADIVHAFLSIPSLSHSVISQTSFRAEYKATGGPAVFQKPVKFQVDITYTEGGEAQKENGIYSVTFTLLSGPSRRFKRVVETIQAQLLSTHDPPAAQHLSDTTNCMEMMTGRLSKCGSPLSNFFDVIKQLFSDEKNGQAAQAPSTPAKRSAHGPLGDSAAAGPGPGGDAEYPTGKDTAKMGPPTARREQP
Procedure, shortened: as §1

Chain of CDK6/cyclinD3(h) (Q00534 whole entry): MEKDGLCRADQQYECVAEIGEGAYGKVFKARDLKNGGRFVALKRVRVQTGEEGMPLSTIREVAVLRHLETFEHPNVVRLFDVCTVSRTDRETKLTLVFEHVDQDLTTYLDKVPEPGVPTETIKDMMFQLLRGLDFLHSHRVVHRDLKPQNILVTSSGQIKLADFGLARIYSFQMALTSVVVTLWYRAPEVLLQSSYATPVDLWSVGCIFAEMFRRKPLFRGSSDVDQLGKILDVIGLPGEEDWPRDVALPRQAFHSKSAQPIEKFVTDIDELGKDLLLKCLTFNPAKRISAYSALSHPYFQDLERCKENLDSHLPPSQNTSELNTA
Chain of CDK6/cyclinD3(h) (P30281 whole entry partner): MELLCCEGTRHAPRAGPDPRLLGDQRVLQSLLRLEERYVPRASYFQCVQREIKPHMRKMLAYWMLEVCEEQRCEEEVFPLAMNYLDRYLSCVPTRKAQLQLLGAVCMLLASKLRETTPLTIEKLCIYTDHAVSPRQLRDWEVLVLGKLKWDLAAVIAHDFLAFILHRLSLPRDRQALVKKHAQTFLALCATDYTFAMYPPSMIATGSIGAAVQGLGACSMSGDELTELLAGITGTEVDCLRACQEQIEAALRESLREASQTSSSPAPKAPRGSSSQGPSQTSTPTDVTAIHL

| Sequence | CDK6/cyclinD3(h) % activity (CDK6/cyclinD3(h)) [%] | CK1δ(h) % activity (CK1δ(h)) [%] | WNK3(h) % activity (WNK3(h)) [%] | DAPK1(h) % activity (DAPK1(h)) [%] | EphB1(h) % activity (EphB1(h)) [%] | Pyk2(h) % activity (Pyk2(h)) [%] | TBK1(h) % activity (TBK1(h)) [%] | BrSK2(h) % activity (BrSK2(h)) [%] |
| --- | --- | --- | --- | --- | --- | --- | --- | --- |
| HRRIKAWLKKIKALARQLGVAA (Mammalian) [MMI-0500] | 23 | 78 | 9 | 0 | 37 | 46 | 16 | 84 |
| KAFAKLAARLYRKALARQLGVAA [MMI-0400] | 85 | 93 | 74 | 36 | 58 | 34 | 39 | 86 |
| FAKLAARLYRKALARQLGVAA [MMI-0300] | 86 | 92 | 77 | 46 | 44 | 47 | 37 | 83 |
| YARAAARQARAKALNRQLGVA (Mammalian) [MMI-0200] | 100 | 92 | 97 |  | 95 | 127 | 98 |  |
